Results from the supplement of paper PMC10567573.
± gives the standard deviation.

Assay: protein stability index of a GFP-peptide fusion (GPS, HEK-293T) (PSI 1-6); higher = more stable
Details: c terminus: a fixed tail appended
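Further: 24-mer peptide tiles fused after GFP, lentivirally expressed, FACS-sorted into six equal bins by GFP/DsRed ratio, decoded by Illumina sequencing, PSI is the read-weighted mean bin number.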

Sequence | protein stability index (treatment: DMSO) | protein stability index (treatment: MLN4924 1 uM, 8 h)
WHEIRQGRLPRIPQVLSQEFTELL [WEE1] | 2.42 ± 0.22 | 2.38 ± 0.23
GMDLNLEAEALAGTGLVLDEQLNE [HDAC6] | 5.4 ± 0.44 | 5.33 ± 0.24
SVVPEMEESGAQLLLEMLTFNPHK [CDK4] | 3.14 ± 0.26 | 3.15 ± 0.38
IPQLEDVSNFLKERTGFSIRPVAG [TPH1] | 2.98 ± 0.34 | 2.98 ± 0.14
SGQYRELGGAIDFGAAYVLEQASS [ATL3] | 3.47 ± 0.27 | 3.61 ± 0.41
NTRGTGSSSSGVLMVGPNFRVGKK [CSNK1G3] | 4.48 ± 0.2 | 4.51 ± 0.18
GGRLENQKPRGLEGGVLRGSKLEK [ZSWIM9] | 4.91 ± 0.68 | 4.9 ± 0.65
RLCGRQVSRGPGVNVGTTALWKHL [ZBED2] | 2.29 ± 0.36 | 2.17 ± 0.31
PAKAANRTPPKSPGDPSKDRAAKR [TPPP] | 5.22 ± 0.38 | 5.21 ± 0.32
KQLISQTKKKQWCYNCEEEAMYHC [ZMYND11] | 3.1 ± 0.17 | 3.22 ± 0.34
MYASSAPPSEPVPSLEDISCNTWP [TBX5] | 3.95 ± 0.17 | 3.97 ± 0.22
LWKRMDKLEAEKRILQEKLDQPVS [CCDC6] | 3.81 ± 0.2 | 3.94 ± 0.35
RDQHPQPSLGDSLESIPSLSQSPE [RTN2] | 5.44 ± 0.18 | 5.55 ± 0.12
VEEVDMAEEFEQPTLSCEKYLTYD [ELOA2] | 5.09 ± 0.32 | 5.19 ± 0.39
MSTFRQEDVEDHYEMGEELGSGQF [DAPK3] | 5.43 ± 0.22 | 5.33 ± 0.48
QGIFVEKYDPTIEDSYRKQVEVDA [RAP1B] | 4.72 ± 0.11 | 4.44 ± 0.12
VKNSNRYDVEMTDELVGLPFSSHT [FBXO34] | 3.8 ± 0.25 | 4 ± 0.12
QMMPYMQPVMQSDRTAIRSDTTHL [KLHL13] | 3.5 ± 0.24 | 3.5 ± 0.23
IFFDDLDSPSKEEVFRFVQSCARA [CPOX] | 2.45 ± 0.38 | 2.69 ± 0.65
QLHHVVYCFMIAYGTQRTLILESQ [FUT8] | 3.12 ± 0.55 | 3.17 ± 0.36
LQDLALQGAKERAHQQKKHSGFED [CHGA] | 4.92 ± 0.29 | 5.06 ± 0.22
QHAVQELTKAATSGVGIDGEVLSY [RHOBTB1] | 4.5 ± 0.25 | 4.57 ± 0.14

Sequence | protein stability index (treatment: DMSO) | protein stability index (treatment: MLN4924 1 uM, 8 h)
ITYPMLFKLTNKNSDRMTHCGVLE [UFD1] | 2.46 ± 0.17 | 2.43 ± 0.23
LALKLPDGSYALNGEYTLMPSPTD [ADAMTS4] | 2.35 ± 0.15 | 2.41 ± 0.28
ATVPSNMMSVNGQAKTHTDSSEKE [ACBD3] | 5.35 ± 0.23 | 5.45 ± 0.19
RSWMFRRGPLNSDRSDYFAAWGAR [TRIM43] | 2.5 ± 0.14 | 2.62 ± 0.47
GRDSEGPAEGEGRLGRCMRRLRDM [KCNG1] | 4.99 ± 0.15 | 4.76 ± 0.15
ALDLAREFLPQGPVAMRVAKLAIN [AUH] | 2.89 ± 0.18 | 2.83 ± 0.25
QPLEASNPALEGLTQPLQGGTPHC [DNAAF3] | 5.11 ± 0.15 | 5.09 ± 0.35
SSFSLLLDLLSELYQKQPKIGYHL [INTS3] | 3.05 ± 0.2 | 2.86 ± 0.62
HSFQSSHRPSLNSVSLQINCQSVA [DLC1] | 2.95 ± 0.29 | 2.98 ± 0.28
IDHYVGIARDQTKSIVEKIQAKLP [RTN3] | 3.05 ± 0.074 | 3.22 ± 0.39
SGMVTIITGLPLDNPSVLSGPMQA [SMG5] | 2.32 ± 0.35 | 2.14 ± 0.39
SAPVETPRGKPPLNTRSQAPLLRW [HMOX1] | 3.64 ± 0.26 | 3.72 ± 0.24
GRHHSQSTEVQAHPYSTTFQESAS [TEKT4] | 4.31 ± 0.2 | 4.46 ± 0.3
PAPKSTYECRCIGEEKEMWNFGEK [TIA1] | 3.86 ± 0.23 | 3.85 ± 0.33
WRERAVEKRERALEEVERAILEMK [ZBED2] | 4.2 ± 0.14 | 4.29 ± 0.44
QFNVSGPGLLEEDNQWMTQINRLQ [NECAB1] | 3.02 ± 0.13 | 3.31 ± 0.19
CQGQPQGKAVVSHSKGHKSSRQEK [ELOA2] | 5.38 ± 0.22 | 5.37 ± 0.1
CSIGFAVRYLNAYTGIVLLRCRKE [POP5] | 3.13 ± 0.43 | 2.99 ± 0.57
QKNGGGAYLVPYLVLLIIIGIPLF [SLC6A17] | 2.37 ± 0.061 | 2.83 ± 1.5
KAAVSHWQQQSYLDSGIHSGATTT [CTNNB1] | 3.69 ± 0.2 | 3.78 ± 0.17
HQPVVRQCGPQTGLQSPGTLQPPE [TBX5] | 4.41 ± 0.27 | 4.63 ± 0.12
CQFRPPVRVNDGGGSHPSRPNSRH [VDR] | 4.55 ± 0.34 | 4.77 ± 0.076
